The record followed here is PMC9482650, “Quantitative fragmentomics allow affinity mapping of interactomes” (Nature Communications, 2022).

Targets include ARHGEF12, Q9NZN5-2; CNKSR3, Q6P9H4; DLG5_2, Q8TDM6; IL16_2, Q14005; LMO7, Q8WWI1; MAGI1_3, Q96QZ7; NHERF2_1, Q15599; PDZD9, Q8IXQ8; PREX1_1, Q8TCU6; PTPN13_2, Q12923.
What all share (assay): holdup assay
Design in all cases: key: below the threshold = too weak to quantify, mostly under pKd 3.1 to 4

A further test has as its target T1, APBA3_2, O96018.
T1 sequence (O96018 480-570, limits assumed, looked up): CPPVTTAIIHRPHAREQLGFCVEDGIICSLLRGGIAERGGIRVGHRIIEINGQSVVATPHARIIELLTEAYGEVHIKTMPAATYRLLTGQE

Another test addresses T2, DVL1, O14640.
T2 sequence (O14640 246-333, limits assumed, looked up): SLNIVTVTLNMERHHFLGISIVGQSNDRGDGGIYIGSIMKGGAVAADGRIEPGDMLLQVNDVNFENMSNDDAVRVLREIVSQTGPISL

The next test addresses T3, NHERF1_2, O14745.
T3 sequence (O14745 149-244, limits assumed, looked up): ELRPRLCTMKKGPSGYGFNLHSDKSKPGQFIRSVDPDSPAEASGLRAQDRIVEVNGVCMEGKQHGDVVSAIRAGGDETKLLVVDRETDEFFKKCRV

The target of a further test is T4, NHERF3_2, Q5T2W1.
T4 sequence (Q5T2W1 129-225, limits assumed, looked up): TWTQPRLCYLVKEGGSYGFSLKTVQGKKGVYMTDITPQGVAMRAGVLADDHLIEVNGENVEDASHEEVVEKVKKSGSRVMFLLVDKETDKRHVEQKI

Another test addresses T5, PDZD2_1, O15018.
T5 sequence (O15018 80-192, limits assumed, looked up): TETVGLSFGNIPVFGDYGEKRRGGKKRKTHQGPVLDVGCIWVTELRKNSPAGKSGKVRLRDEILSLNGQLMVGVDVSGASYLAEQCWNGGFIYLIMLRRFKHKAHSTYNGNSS

The target in the next test is T6, PDZD2_3, O15018.
T6 sequence (O15018 581-682, limits assumed, looked up): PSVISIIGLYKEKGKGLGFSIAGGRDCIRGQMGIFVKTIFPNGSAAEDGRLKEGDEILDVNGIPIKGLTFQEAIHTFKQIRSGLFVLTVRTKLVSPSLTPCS

Another test deals with T7, PTPN13_4, Q12923.
T7 sequence (Q12923 1783-1878, limits assumed, looked up): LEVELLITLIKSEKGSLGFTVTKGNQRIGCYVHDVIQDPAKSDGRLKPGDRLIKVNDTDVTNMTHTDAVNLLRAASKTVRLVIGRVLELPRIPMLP

The next test concerns the target T8, PTPN13_5, Q12923.
T8 sequence (Q12923 1877-1975, limits assumed, looked up): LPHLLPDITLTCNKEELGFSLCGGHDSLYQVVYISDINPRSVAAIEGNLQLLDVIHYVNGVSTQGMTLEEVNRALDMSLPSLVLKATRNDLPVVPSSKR

The target in a further test is T9, SHANK3, Q9BYB0.
T9 sequence (Q9BYB0 641-750, limits assumed, looked up): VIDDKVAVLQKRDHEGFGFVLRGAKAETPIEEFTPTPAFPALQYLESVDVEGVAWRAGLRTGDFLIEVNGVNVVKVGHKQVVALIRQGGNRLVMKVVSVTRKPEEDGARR

For the next test, the target named is T10, SHROOM3, Q8TF72.
T10 sequence (Q8TF72 20-120, limits assumed, looked up): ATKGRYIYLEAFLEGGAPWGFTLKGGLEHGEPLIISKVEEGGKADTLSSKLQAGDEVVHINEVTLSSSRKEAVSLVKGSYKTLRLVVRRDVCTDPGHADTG

The target in the next test is T11, SNTG1, Q9NSN8.
T11 sequence (Q9NSN8 52-150, limits assumed, looked up): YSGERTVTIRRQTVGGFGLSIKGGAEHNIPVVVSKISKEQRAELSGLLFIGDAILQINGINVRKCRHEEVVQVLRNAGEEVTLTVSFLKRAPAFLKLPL

Another test addresses T12, TJP3_2, O95049.
T12 sequence (O95049 190-282, limits assumed, looked up): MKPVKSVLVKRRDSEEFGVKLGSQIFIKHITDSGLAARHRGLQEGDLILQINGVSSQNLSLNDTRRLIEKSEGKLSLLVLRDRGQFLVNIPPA

The next test has as its target T13, USH1C_2, Q9Y6N9.
T13 sequence (Q9Y6N9 206-303, limits assumed, looked up): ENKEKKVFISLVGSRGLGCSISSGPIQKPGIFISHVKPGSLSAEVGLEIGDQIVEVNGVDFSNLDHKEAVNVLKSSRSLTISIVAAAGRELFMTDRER

The mark [1] stands for this setting: plain residues with an end cap or a label only (N-terminal biotin on a linker: ttds).
[2] abbreviates: plain residues with an end cap or a label only (N-terminal biotin on a linker: none).

Chain of LMO7, Q8WWI1 (Q8WWI1 1037-1138): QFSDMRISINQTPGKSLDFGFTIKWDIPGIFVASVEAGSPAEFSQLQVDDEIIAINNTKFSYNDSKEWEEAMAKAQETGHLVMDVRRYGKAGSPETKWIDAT
Chain of PREX1_1, Q8TCU6 (Q8TCU6 608-718): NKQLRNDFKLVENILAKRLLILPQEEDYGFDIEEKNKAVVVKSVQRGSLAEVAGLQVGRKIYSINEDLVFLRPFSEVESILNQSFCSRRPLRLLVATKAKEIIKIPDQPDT
Chain of PDZD9, Q8IXQ8 (Q8IXQ8 23-120): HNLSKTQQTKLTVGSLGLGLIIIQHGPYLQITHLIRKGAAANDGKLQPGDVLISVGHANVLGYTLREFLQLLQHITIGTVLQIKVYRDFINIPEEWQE
Chain of IL16_2, Q14005 (Q14005 350-450): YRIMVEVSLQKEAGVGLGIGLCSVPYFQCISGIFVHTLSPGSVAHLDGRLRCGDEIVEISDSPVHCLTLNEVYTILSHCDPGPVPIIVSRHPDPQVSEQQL
Chain of ARHGEF12, Q9NZN5-2 (Q9NZN5 other isoform, or with tags, fused parts or gaps): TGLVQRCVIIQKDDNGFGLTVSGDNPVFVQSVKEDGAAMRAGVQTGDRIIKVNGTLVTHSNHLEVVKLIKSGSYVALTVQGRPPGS
Chain of DLG5_2, Q8TDM6 (Q8TDM6 714-800): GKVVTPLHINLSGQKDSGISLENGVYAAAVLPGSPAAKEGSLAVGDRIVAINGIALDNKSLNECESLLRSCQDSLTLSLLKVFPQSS
Chain of NHERF2_1, Q15599 (Q15599 9-91): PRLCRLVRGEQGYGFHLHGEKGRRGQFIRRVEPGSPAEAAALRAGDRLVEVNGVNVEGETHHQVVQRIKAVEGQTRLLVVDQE
Chain of MAGI1_3, Q96QZ7 (Q96QZ7 638-725): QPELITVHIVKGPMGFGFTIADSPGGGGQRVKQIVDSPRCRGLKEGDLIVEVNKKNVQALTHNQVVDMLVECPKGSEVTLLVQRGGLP
Chain of PTPN13_2, Q12923 (Q12923 1363-1462): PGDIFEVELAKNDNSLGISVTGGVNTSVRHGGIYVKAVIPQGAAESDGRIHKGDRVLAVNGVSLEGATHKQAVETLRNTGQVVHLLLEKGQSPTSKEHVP
Chain of CNKSR3, Q6P9H4 (Q6P9H4 203-303): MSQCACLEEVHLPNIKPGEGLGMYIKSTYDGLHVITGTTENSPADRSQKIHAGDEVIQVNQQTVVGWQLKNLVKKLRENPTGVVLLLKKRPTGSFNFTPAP

In the case of IQREDQETAV [DGKZ, Q13574], the pKd is 4.74 in the test with APBA3_2, O96018 (setting [1]); 4.22 with ARHGEF12, Q9NZN5-2 (setting [1]); “below the threshold” with CNKSR3, Q6P9H4 (setting [1]); “below the threshold” in the test with DLG5_2, Q8TDM6 (setting [1]); “below the threshold” with DVL1, O14640 (setting [1]); “below the threshold” in the test with IL16_2, Q14005 (setting [1]). Further, the negative logarithm of the Kd (pKd) result is “below the threshold” with LMO7, Q8WWI1 (setting [1]); 4.57 with MAGI1_3, Q96QZ7 (setting [1]); “below the threshold” with NHERF1_2, O14745 (setting [1]); “below the threshold” with NHERF2_1, Q15599 (setting [1]); “below the threshold” in the test with NHERF3_2, Q5T2W1 (setting [1]); “below the threshold” with PDZD2_1, O15018 (setting [1]). Moreover, the pKd entry with PDZD2_3, O15018 (setting [1]) is “below the threshold”; with PDZD9, Q8IXQ8 (setting [1]) it was “below the threshold”; with PREX1_1, Q8TCU6 (setting [1]), “below the threshold”; with PTPN13_2, Q12923 (setting [1]), “below the threshold”; with PTPN13_4, Q12923 (setting [1]) it was “below the threshold”; with PTPN13_5, Q12923 (setting [1]), “below the threshold”. Moreover, the negative-log Kd (pKd) result was “below the threshold” with SHANK3, Q9BYB0 (setting [1]); “below the threshold” in the test with SHROOM3, Q8TF72 (setting [1]); 5.4 in the test with SNTG1, Q9NSN8 (setting [1]); “below the threshold” with TJP3_2, O95049 (setting [1]); “below the threshold” with USH1C_2, Q9Y6N9 (setting [1]).

Take DPLTPSRSQL [DGKK, Q5KSL6]: the negative-log Kd (pKd) with APBA3_2, O96018 (setting [1]) was 4.47; with ARHGEF12, Q9NZN5-2 (setting [1]), 3.86; with CNKSR3, Q6P9H4 (setting [1]), “below the threshold”; with DLG5_2, Q8TDM6 (setting [1]), “below the threshold”; with DVL1, O14640 (setting [1]), “below the threshold”; in the test with IL16_2, Q14005 (setting [1]), “below the threshold”. Moreover, the pKd entry was “below the threshold” with LMO7, Q8WWI1 (setting [1]); “below the threshold” with MAGI1_3, Q96QZ7 (setting [1]); “below the threshold” with NHERF1_2, O14745 (setting [1]); “below the threshold” with NHERF2_1, Q15599 (setting [1]); “below the threshold” with NHERF3_2, Q5T2W1 (setting [1]); “below the threshold” with PDZD2_1, O15018 (setting [1]). The pKd entry is “below the threshold” with PDZD2_3, O15018 (setting [1]); “below the threshold” with PDZD9, Q8IXQ8 (setting [1]); “below the threshold” with PREX1_1, Q8TCU6 (setting [1]); 4.4 in the test with PTPN13_2, Q12923 (setting [1]); “below the threshold” with PTPN13_4, Q12923 (setting [1]); “below the threshold” with PTPN13_5, Q12923 (setting [1]). In addition, the pKd entry in the test with SHANK3, Q9BYB0 (setting [1]) was “below the threshold”; with SHROOM3, Q8TF72 (setting [1]) it was “below the threshold”; with SNTG1, Q9NSN8 (setting [1]), “below the threshold”; with TJP3_2, O95049 (setting [1]) it was “below the threshold”; with USH1C_2, Q9Y6N9 (setting [1]), “below the threshold”.

With DSKPPLPPDEWV [MERS-E, K9N5R3], the pKd entry was “below the threshold” in the test with APBA3_2, O96018 (setting [2]); 3.76 with ARHGEF12, Q9NZN5-2 (setting [2]); “below the threshold” with CNKSR3, Q6P9H4 (setting [2]); 4 in the test with DLG5_2, Q8TDM6 (setting [2]); “below the threshold” with DVL1, O14640 (setting [2]); “below the threshold” with IL16_2, Q14005 (setting [2]). The negative-log Kd (pKd) result is reported as “below the threshold” with LMO7, Q8WWI1 (setting [2]); “below the threshold” with MAGI1_3, Q96QZ7 (setting [2]); “below the threshold” in the test with NHERF1_2, O14745 (setting [2]); “below the threshold” in the test with NHERF2_1, Q15599 (setting [2]); “below the threshold” with NHERF3_2, Q5T2W1 (setting [2]); “below the threshold” in the test with PDZD2_1, O15018 (setting [2]). Besides, the negative-log Kd (pKd) in the test with PDZD2_3, O15018 (setting [2]) is 3.89; in the test with PDZD9, Q8IXQ8 (setting [2]), “below the threshold”; with PREX1_1, Q8TCU6 (setting [2]) it was “below the threshold”; in the test with PTPN13_2, Q12923 (setting [2]) it was 4.35; with PTPN13_4, Q12923 (setting [2]), 4.11; with PTPN13_5, Q12923 (setting [2]), “below the threshold”. Moreover, the pKd entry is “below the threshold” with SHANK3, Q9BYB0 (setting [2]); “below the threshold” with SHROOM3, Q8TF72 (setting [2]); 3.87 with SNTG1, Q9NSN8 (setting [2]); “below the threshold” with TJP3_2, O95049 (setting [2]); “below the threshold” with USH1C_2, Q9Y6N9 (setting [2]).

With HRTCYLVTQL [ASIC3, Q9UHC3], the negative-log Kd (pKd) result is “below the threshold” with APBA3_2, O96018 (setting [1]); 5.63 with ARHGEF12, Q9NZN5-2 (setting [1]); “below the threshold” with CNKSR3, Q6P9H4 (setting [1]); “below the threshold” with DLG5_2, Q8TDM6 (setting [1]); “below the threshold” with DVL1, O14640 (setting [1]); “below the threshold” with IL16_2, Q14005 (setting [1]). The pKd entry in the test with LMO7, Q8WWI1 (setting [1]) was “below the threshold”; in the test with MAGI1_3, Q96QZ7 (setting [1]), “below the threshold”; with NHERF1_2, O14745 (setting [1]), 4.35; with NHERF2_1, Q15599 (setting [1]) it was 4.56; with NHERF3_2, Q5T2W1 (setting [1]) it was 4.33; in the test with PDZD2_1, O15018 (setting [1]), “below the threshold”. Further, the negative-log Kd (pKd) result in the test with PDZD2_3, O15018 (setting [1]) is “below the threshold”; in the test with PDZD9, Q8IXQ8 (setting [1]), “below the threshold”; with PREX1_1, Q8TCU6 (setting [1]) it was 3.99; with PTPN13_2, Q12923 (setting [1]), “below the threshold”; with PTPN13_4, Q12923 (setting [1]), “below the threshold”; in the test with PTPN13_5, Q12923 (setting [1]) it was “below the threshold”. The negative-log Kd (pKd) in the test with SHANK3, Q9BYB0 (setting [1]) is 5.52; with SHROOM3, Q8TF72 (setting [1]), “below the threshold”; with SNTG1, Q9NSN8 (setting [1]), 3.72; with TJP3_2, O95049 (setting [1]), “below the threshold”; with USH1C_2, Q9Y6N9 (setting [1]), “below the threshold”.
